Consider four substances from US20180216194A1.

Holding throughout (assay): Bio-Plex bead immunoassay, multiplexed beads, single antigen, single detection antibody
The target of assay [1] is recombinant MIA protein (R&D Systems DuoSet Cat. # DY2050) (human) (UniProt Q16674).
Assay [2] deals with recombinant MIC-1 protein (R&D Systems DuoSet Cat. # DY957) (human) (UniProt Q99988).
The target in assay [3] is recombinant SPON1 protein (R&D Systems Cat. # 3135-SP/CF) (Homo sapiens (Human)) (UniProt Q9HCB6).
For assay [4], the target named is recombinant HSP27 protein (R&D Systems DuoSet Cat. # DY1580) (human) (UniProt P04792).
In assay [5] the target is recombinant OPN protein (R&D Systems Cat. # 1433-OP-050) (Homo sapiens (Human)) (UniProt P10451).
For assay [6], the target named is recombinant CEACAM-1 protein (R&D Systems DuoSet Cat. # DY2244) (human) (UniProt P13688).
Chain of UniProt P13688 (P13688 35-428 limits assumed): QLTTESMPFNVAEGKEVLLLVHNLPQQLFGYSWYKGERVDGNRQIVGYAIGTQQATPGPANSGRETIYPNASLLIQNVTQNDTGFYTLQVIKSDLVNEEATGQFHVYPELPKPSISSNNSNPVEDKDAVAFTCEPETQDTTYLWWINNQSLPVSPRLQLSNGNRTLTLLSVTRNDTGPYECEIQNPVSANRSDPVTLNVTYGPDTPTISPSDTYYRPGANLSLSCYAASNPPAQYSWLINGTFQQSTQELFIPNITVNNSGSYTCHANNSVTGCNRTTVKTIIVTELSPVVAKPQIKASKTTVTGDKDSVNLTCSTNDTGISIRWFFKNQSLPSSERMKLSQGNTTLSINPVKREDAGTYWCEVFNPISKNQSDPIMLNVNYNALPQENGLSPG

Chain of UniProt Q16674 (Q16674 25-131 limits assumed): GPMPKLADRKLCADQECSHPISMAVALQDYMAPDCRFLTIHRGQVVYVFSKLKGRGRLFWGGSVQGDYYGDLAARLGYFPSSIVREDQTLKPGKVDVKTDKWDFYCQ
Chain of UniProt Q99988 (Q99988 197-308 limits assumed): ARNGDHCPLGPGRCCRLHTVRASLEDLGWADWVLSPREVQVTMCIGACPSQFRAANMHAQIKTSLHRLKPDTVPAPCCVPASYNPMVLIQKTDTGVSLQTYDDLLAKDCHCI
Chain of UniProt P04792 (P04792 whole entry): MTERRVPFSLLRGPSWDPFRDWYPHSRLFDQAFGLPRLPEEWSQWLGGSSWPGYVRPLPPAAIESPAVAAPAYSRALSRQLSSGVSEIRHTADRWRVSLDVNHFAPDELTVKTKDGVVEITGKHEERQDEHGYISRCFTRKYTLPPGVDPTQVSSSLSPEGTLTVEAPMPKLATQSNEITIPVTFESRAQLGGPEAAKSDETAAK
Chain of UniProt P10451 (P10451 other isoform, or with tags, fused parts or gaps limits assumed): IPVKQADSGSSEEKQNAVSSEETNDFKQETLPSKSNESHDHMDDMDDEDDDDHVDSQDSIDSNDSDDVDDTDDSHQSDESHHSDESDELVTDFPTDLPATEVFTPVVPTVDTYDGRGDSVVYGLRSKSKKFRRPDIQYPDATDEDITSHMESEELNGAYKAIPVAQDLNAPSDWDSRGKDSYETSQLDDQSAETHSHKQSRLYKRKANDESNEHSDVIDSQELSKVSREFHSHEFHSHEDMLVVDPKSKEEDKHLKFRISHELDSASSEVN
Chain of UniProt Q9HCB6 (Q9HCB6 29-807 limits assumed): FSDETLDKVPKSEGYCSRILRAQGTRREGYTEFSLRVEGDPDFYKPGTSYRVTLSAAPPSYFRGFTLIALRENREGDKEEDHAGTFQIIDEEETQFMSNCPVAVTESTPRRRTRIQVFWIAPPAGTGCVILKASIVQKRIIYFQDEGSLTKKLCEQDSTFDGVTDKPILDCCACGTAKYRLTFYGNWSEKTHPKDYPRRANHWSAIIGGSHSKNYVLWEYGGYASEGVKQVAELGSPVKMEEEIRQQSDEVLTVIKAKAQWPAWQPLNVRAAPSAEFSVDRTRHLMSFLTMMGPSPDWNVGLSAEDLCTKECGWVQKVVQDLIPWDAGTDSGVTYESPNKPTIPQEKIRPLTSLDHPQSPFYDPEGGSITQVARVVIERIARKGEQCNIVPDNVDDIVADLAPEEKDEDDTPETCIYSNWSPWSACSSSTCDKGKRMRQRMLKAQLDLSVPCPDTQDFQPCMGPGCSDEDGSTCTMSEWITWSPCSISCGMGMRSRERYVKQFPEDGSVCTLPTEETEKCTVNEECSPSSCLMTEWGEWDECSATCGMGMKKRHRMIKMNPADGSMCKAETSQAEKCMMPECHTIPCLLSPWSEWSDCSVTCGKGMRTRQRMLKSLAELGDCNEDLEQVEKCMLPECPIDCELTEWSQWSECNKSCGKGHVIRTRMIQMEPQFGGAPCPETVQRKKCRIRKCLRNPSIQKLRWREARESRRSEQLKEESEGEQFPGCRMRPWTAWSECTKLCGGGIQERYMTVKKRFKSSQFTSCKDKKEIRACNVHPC

For the substance “CEACAM-1 capture antibody (R&D Systems DuoSet Cat. # DY2244, mouse)”, the % cross-reactivity (single-detection antibody) came to 0.2% in assay [1]; 0% in assay [2]; 0% in assay [3]; 0% in assay [4]; 0% in assay [5].

As for “MIA capture antibody (R&D Systems DuoSet Cat. # DY2050, mouse)”, the % cross-reactivity (single-detection antibody) in assay [2] worked out at 0.1%; in assay [3], 0.3%; in assay [4] it was 0.1%; in assay [6], 0.4%; in assay [5] it was 0.3%.

For “MIC-1 capture antibody (R&D Systems DuoSet Cat. # DY957, mouse)”, the % cross-reactivity (single-detection antibody) in assay [1], in assay [3], in assay [4], in assay [6] and in assay [5] was 0% in each case.

“OPN capture antibody (R&D Systems Cat. # MAB14332, mouse)”: the % cross-reactivity (single-detection antibody) in assay [1], in assay [2], in assay [3], in assay [4] and in assay [6] was 0% each time.
